Reference: article PMC10247859, “Replisome-cohesin interactions provided by the Tof1-Csm3 and Mrc1 cohesion establishment factors” (Chromosoma, 2023)

Assays:
Scc3 = molecular target: T1, Scc3 (S. cerevisiae (budding yeast), UniProt P40541 1-1150); assay: cross-linking; CLMS with sulfo-SDA; cohesin, Tof1-Csm3 and Chl1 with or without Mrc1 at 300-350 nM, 30 °C 5 min, cross-linker 2 h at 4 °C, UV 365 nm; LC-MS/MS, 1% FDR at residue-pair level; two samples merged; settings: both partners purified
T1 construct: Scc3, budding yeast; the Scc3 chain of m1; Stood in the cross-linking sample as a chain of cohesin; source: purified as part of cohesin, as previously described (Minamino et al. 2018)
T1 sequence (looked up): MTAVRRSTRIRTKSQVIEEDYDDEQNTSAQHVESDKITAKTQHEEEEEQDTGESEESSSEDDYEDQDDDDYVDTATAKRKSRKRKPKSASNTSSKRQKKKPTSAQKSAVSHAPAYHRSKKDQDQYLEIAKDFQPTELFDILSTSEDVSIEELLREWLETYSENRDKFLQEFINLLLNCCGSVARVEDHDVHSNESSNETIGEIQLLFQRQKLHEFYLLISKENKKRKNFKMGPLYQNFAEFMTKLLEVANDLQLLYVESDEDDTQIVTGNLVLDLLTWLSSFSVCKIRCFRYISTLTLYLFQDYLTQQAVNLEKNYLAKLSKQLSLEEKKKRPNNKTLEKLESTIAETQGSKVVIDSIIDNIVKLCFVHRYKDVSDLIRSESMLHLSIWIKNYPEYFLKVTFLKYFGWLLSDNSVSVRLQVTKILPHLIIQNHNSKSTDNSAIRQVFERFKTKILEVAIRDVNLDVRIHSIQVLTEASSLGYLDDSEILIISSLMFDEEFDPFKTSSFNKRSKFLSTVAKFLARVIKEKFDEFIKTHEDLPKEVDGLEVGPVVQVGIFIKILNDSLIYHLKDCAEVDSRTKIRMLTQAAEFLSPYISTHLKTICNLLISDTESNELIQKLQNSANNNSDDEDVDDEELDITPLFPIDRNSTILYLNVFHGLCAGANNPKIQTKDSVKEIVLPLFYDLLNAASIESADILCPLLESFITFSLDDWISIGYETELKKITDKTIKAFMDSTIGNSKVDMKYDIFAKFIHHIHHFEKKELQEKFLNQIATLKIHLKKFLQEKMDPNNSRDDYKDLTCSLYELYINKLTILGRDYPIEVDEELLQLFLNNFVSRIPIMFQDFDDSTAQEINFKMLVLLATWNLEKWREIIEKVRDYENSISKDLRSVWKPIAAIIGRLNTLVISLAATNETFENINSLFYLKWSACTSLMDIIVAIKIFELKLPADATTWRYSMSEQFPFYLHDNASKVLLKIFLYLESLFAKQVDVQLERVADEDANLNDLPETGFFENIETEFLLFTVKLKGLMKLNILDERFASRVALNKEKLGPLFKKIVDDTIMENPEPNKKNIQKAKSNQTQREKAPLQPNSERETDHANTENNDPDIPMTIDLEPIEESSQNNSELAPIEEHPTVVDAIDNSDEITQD

Smc1 = molecular target: T2, Smc1 (S. cerevisiae (budding yeast), UniProt P32908 1-1225); assay: as above; settings: both partners purified
T2 construct: Smc1, budding yeast; the Smc1 chain of m1; Stood in the cross-linking sample as a chain of cohesin; source: purified as part of cohesin, as previously described (Minamino et al. 2018)
T2 sequence (looked up): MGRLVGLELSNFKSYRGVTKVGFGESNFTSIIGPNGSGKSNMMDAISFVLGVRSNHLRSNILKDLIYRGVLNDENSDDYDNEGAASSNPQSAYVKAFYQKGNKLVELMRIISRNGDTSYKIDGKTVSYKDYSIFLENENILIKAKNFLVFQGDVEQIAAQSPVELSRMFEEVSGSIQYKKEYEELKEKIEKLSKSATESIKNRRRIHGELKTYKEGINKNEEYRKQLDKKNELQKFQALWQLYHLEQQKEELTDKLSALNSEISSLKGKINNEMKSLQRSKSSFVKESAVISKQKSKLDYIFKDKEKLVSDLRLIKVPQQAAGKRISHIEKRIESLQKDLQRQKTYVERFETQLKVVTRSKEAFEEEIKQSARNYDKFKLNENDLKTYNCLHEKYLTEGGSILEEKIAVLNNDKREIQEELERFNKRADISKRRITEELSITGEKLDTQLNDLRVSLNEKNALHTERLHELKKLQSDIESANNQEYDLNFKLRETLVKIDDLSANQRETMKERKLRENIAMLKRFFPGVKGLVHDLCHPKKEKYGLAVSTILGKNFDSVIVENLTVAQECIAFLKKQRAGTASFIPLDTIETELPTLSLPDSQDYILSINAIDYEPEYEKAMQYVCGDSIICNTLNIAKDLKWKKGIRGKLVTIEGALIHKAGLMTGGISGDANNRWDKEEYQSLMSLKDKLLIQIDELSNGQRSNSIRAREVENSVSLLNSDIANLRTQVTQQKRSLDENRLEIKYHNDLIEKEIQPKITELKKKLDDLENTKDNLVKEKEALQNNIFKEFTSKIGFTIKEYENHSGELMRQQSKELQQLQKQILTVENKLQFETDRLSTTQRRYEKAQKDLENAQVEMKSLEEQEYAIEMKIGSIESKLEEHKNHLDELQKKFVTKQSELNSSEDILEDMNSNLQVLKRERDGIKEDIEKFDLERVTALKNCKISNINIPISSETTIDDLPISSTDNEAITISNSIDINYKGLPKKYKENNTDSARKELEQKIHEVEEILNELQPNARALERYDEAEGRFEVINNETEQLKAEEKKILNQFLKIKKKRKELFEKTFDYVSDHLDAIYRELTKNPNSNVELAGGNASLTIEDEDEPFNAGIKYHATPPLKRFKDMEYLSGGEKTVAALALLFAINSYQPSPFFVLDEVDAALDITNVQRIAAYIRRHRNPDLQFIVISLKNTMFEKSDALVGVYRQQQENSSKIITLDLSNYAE

B1: Mrc1 (natural protein, S. cerevisiae (budding yeast), UniProt P25588 1-1096, looked up)
chain: MDDALHALSSLTAKKRTTTYKKVAVPILDENDNTNGNGPNDIDNPPELTGNGFLFANATLNRVKNRLEGKKAPEQNHNNGKDRSENSLPTQLISNLYDGGEELEKSEVKDNSYSEKNVSSSFTQTQRIPVSIQQDKVFNVPIHSVNDGKPTQLIKEDGLVNETSQALKTPLTTGRPGATQRIDSSGATSQTQPIKSIEPQSQIITTSSNHSNALSPKIPIIPTELIGTSPLFQSIQNRGPDTQMDVPPQTAHDEDKTQAIGIPQATHQEQKTQIDTVAQTLQDEVPHTLKIREIQSELASEDSKREKARNVEYKKPQKPIPTKKFFSKESFLADFDDSSSNEDDDIKLENAHPKPVQNDDELHENKSVELNLTDETRINEKRVPLLSSYANNLKREIDSSKCITLDLDSDSDEYGDDDMDSIKLSKDESVLPISQLSKATILNLKARLSKQNQKLSQRPNKSKDPKVDHNVLLNTLRKASRKQILDHQKEVIETKGLKLEDMAKEKEIVENLLEQEILRNKRIRQKEKRREKLEENDFQLNAHDSGSDSGSESSGFALSGNEIADYESSGSENDNRRESDSEKEDDEIILKQKKSHHVKHIINESDSDTEVEAKPKEKADESLPKRIAINLGHYGDNIGEDTDKFQETNVLDTQNIEEVMAERNTIENEVKDDVYVNEEADEAIRRQLIDKEKLQLKQKEKEHEAKIKELKKRGVTNFFEMEAEESEDEWHGIGGADGEGSDDYDSDLEKMIDDYSKNNFNPHEIREMLAAENKEMDIKMINKILYDIKNGGFRNKRAKNSLELELSDDDEDDVLQQYRLKRRELMRKRRLEIGDDAKLVKNPKSSAFFESMVEDIIEYKNPFGAEEEYNLDITSTATDLDTQDNSINVGDNTGNNEQKPVDQKNKKVIISEDFVQKSLSFLKSNNYEDFETDKELSRIQHGNDEAIEDLYTLKQNSSIKSFTNSQTDSTTSKTVNTIIDLEKRPEDEDEVENGDTSLVGVFKHPSIIKSFASRTDINDKFKEGNKTVKILKSYKTVGSSKASITYMGKTRKLIAPKRKTEGSHRYHHDHHNKKMKMKTKTKSNKLFESGQDSFDN
notes: Mrc1, budding yeast; also called Flag-tagged Mrc1; source: purified as previously described (Yeeles et al. 2017)
Does B1 bind (Scc3)?
Result: binds

Does B1 bind (Smc1)?
Result: binds
